The data set addresses T1, DnaA wild-type (Escherichia coli) (UniProt P03004).
T1 sequence: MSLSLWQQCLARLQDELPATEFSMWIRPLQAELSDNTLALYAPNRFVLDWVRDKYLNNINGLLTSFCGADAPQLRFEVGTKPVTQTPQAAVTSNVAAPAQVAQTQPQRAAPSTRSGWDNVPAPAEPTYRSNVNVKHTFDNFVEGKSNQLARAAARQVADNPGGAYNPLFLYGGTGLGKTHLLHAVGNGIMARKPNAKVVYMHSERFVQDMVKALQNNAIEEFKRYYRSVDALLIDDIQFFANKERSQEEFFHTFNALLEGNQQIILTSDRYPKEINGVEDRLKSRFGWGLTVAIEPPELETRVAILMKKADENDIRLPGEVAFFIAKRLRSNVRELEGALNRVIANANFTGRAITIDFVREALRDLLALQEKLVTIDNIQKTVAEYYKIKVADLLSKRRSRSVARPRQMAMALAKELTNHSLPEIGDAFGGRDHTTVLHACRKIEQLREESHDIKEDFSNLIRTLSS
The data set is described as follows: EMSA. As to conditions: EMSA oriC/PdnaA: 20 mM HEPES-KOH pH 8.0, 5 mM Mg acetate, 1 mM EDTA, 4 mM DTT, 0.2% Triton X-100, 5% glycerol, 0.5 mg/ml BSA, 2 mM ATP, 20 C; DARS1: 20 mM …. Background: Mobility shift assays separate free from complexed probe on a gel.

Regarding “GGGGATAGGGGCTGGAGACAGTTATCCACTATTCCTGTGGATAACCATGTGTATTAGAGTTAGAAAACACGAGGCAAGCGAGAGAATACGCGGCTTGCACG (double strand) [DARS1]”, the binding result is reported as “binds”.

Source of the values: publication PMC5397419.
